# Substitutions are numbered along the chain they refer to. Names and notes keep the numbering of the source.
# B1: PYR1^K59R,M158T (receptor, not shown: small tags and cut ends)
# chain: MPSELTPEERSELKNSIAEFHTYQLDPGSCSSLHAQRIHAPPELVWSIVRRFDKPQTYRHFIKSCSVEQNFEMRVGCTRDVIVISGLPANTSTERLDILDDERRVTGFSIIGGEHRLTNYKSVTTVHRFEKENRIWTVVLESYVVDMPEGNSEDDTRTFADTVVKLNLQKLATVAEAMARNSGDGSGSQVT
# notes: pBD-PYR1 fusion in yeast
# B2: PYR1^K59R,T162W (receptor, not shown: small tags and cut ends)
# chain: B1 chain with T158M, T162W
# notes: pBD-PYR1 fusion in yeast
# B3: PYR1^K59R,M158V (receptor, not shown: small tags and cut ends)
# chain: B1 chain with T158V
# notes: pBD-PYR1 fusion in yeast
# B4: PYR1^K59R,M158C (receptor, not shown: small tags and cut ends)
# chain: B1 chain with T158C
# notes: pBD-PYR1 fusion in yeast
# B5: PYR1^K59R,F159V (receptor, not shown: small tags and cut ends)
# chain: B1 chain with T158M, F159V
# notes: pBD-PYR1 fusion in yeast
# B6: PYR1^K59R,L87F (receptor)
# chain: B1 chain with L87F, T158M
# notes: pBD-PYR1 fusion in yeast
# B7: PYR1^K59R,A89I,S92W (receptor)
# chain: B1 chain with A89I, S92W, T158M
# notes: pBD-PYR1 fusion in yeast
# B8: PYR1^K59R,S92W (receptor)
# chain: B1 chain with S92W, T158M
# notes: pBD-PYR1 fusion in yeast
# B9: PYR1^K59R,S92I (receptor)
# chain: B1 chain with S92I, T158M
# notes: pBD-PYR1 fusion in yeast
# B10: PYR1^K59R,A89W (receptor)
# chain: B1 chain with A89W, T158M
# notes: pBD-PYR1 fusion in yeast
# Target: T1, GAL4 activation domain fusion (ACT) to HAB1 (UniProt Q9CAJ0 23-511, limits assumed)
# T1 construct: pACT-HAB1 fusion in yeast reporter strains; also called pACT-HAB1
# T1 sequence (looked up): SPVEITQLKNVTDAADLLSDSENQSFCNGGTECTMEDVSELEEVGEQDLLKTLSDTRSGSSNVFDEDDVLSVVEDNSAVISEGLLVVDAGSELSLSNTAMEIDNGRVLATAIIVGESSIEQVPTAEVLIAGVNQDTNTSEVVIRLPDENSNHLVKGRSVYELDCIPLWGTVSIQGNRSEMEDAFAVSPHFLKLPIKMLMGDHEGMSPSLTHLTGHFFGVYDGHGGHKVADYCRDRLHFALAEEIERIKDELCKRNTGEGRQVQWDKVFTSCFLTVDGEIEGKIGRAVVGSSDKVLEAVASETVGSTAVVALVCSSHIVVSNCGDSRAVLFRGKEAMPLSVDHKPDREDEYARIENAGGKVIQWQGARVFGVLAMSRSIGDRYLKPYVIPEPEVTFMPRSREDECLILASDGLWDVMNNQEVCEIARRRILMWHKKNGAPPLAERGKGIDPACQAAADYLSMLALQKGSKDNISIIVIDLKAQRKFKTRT
# Test: yeast two-hybrid, X-gal; lowest dichlobenil concentration giving signal
row,Binder,Threshold
1,B1,100 µM
2,B2,100 µM
3,B3,100 µM
4,B4,100 µM
5,B5,100 µM

# Target: T1, GAL4 activation domain fusion (ACT) to …
# Test: yeast two-hybrid, X-gal; lowest benzothiadiazole concentration giving signal
row,Binder,Threshold
1,B1,100 µM
2,B2,100 µM
3,B3,100 µM
4,B4,100 µM
5,B5,100 µM

# Target: T1, GAL4 activation domain fusion (ACT) to …
# Test: yeast two-hybrid, X-gal; lowest fludioxonil concentration giving signal
row,Binder,Threshold
1,B6,100 µM
2,B1,100 µM
3,B2,100 µM
4,B3,100 µM
5,B4,100 µM
6,B5,100 µM

# Target: T1, GAL4 activation domain fusion (ACT) to …
# Test: yeast two-hybrid, X-gal; lowest benoxacor concentration giving signal
# Experimental: The set of 475 mutant plasmids were individually transformed into the Y190 yeast two hybrid reporter strain co-transformed with pACT-HAB1, as previously described (Park et al., 2009). The yeast strains generated were arrayed into 96-well plates yielding what we refer to as the “pocket library”. The pocket library strains were spotted onto agar plates containing selective synthetic dextrose (minus Leu & Trp) medium that was supplemented with a single test compound at 100 μM. The pocket library strains were separately tested for responsiveness to the following compounds: dichlobenil, benzothiadiazole, mandipropamid, fludioxonil, and benoxacor. After incubating test plates at 30° C. for two days, colonies were chloroform lysed and stained to reveal β-galactosidase expression levels, using previously described methods (Park et al., 2009). Mutants displaying responsiveness to the test compound, if present, were identified by virtue of X-gal staining and then subjected to subsequent optimization efforts. Using this approach we identified mutations that conferred detectable sensitivity to the compounds tested (see entries labeled “Pocket Library Screens” in Table 1).
row,Binder,Threshold
1,B7,50 µM
2,B6,100 µM
3,B1,100 µM
4,B8,50 µM
5,B2,50 µM
6,B9,50 µM
7,B3,100 µM
8,B4,100 µM
9,B10,100 µM
10,B5,100 µM

# Target: T1, GAL4 activation domain fusion (ACT) to …
# Test: yeast two-hybrid, X-gal; lowest mandipropamid concentration giving signal
row,Binder,Threshold
1,B10,100 µM
2,B5,100 µM

# — patent US20160115500A1 (University of California, published 2016)
